Paper PMC3507203 (Biology Open, 2011)

Molecular target: T1, GST-tagged KLHL18 (human, UniProt O94889 1-574)
T1 sequence (looked up): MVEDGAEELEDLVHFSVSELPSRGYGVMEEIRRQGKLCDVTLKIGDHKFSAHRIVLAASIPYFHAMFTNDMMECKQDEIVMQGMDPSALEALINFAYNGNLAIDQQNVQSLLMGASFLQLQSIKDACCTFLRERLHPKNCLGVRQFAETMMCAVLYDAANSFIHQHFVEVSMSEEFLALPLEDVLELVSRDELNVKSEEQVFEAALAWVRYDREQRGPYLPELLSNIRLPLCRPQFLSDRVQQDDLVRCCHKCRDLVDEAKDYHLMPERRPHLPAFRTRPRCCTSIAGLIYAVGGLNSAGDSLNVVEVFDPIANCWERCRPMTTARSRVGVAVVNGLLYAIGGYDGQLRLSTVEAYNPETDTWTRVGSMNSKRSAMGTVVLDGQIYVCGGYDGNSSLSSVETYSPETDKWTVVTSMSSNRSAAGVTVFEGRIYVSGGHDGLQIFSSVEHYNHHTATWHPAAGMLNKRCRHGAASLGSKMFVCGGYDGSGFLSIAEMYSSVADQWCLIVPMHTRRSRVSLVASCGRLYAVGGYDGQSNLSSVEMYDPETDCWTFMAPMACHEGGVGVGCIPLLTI
Experiment: pull-down

binding result: binds
B1: histidine-tagged Aurora-A (natural protein, human, UniProt O14965 1-403, looked up)
chain: MDRSKENCISGPVKATAPVGGPKRVLVTQQFPCQNPLPVNSGQAQRVLCPSNSSQRIPLQAQKLVSSHKPVQNQKQKQLQATSVPHPVSRPLNNTQKSKQPLPSAPENNPEEELASKQKNEESKKRQWALEDFEIGRPLGKGKFGNVYLAREKQSKFILALKVLFKAQLEKAGVEHQLRREVEIQSHLRHPNILRLYGYFHDATRVYLILEYAPLGTVYRELQKLSKFDEQRTATYITELANALSYCHSKRVIHRDIKPENLLLGSAGELKIADFGWSVHAPSSRRTTLCGTLDYLPPEMIEGRMHDEKVDLWSLGVLCYEFLVGKPPFEANTYQETYKRISRVEFTFPDFVTEGARDLISRLLKHNPSQRPMLREVLEHPWITANSSKPSNCQNKESASKQS
